Measured values as given in paper PMC4976356, “Structural insight into β-Clamp and its interaction with DNA Ligase in Helicobacter pylori” (Scientific Reports, 2016).

Experiments:
[1] = molecular target: the molecule itself; test: SEC; gel filtration on HiLoad G200 16/60; 30 mM Tris pH 7.5, 150 mM NaCl, 5% glycerol, 30 mM arginine, 6 mM βMe
[2] = molecular target: T1, NAD-dependent DNA ligase from Helicobacter pylori 26695 (Helicobacter pylori 26695, UniProt O25336 1-656); conditions: both partners purified
T1 construct: Cloned and expressed in a similar manner to the β-clamp (NcoI/XhoI, pET 28(b)); by the printed forward primer Met-Gly would stand before Met1, and the reverse primer has no stop codon, so a C-terminal vector His tag is likely (surmised); also called HpDNA ligase; Hpligase; source: E. coli BL21, purified (Ni Sepharose, HiLoad G200 gel filtration)

B1: β-clamp from Helicobacter pylori 26695 (natural protein, UniProt O25242 1-374, looked up)
chain: MKISVSKNDLENALRYLQAFLDKKDASSIASHIHLEVIKEKLFLKASDSDIGLKSYIFTQSSDKEGVGTINGKKFLDIISCLKDSNIILETKDDSLAIKQNKSSFKLPMFDADEFPEFPVIDPKVSIEVNAPFLVDAFKKIAPVIEQTSHKRELAGILMQFDQKHQTLSVVGTDTKRLSYTQLEKISIHSTEEDISCILPKRALLEILKLFYENFSFKSDGMLAVIENEMHTFFTKLIDGNYPDYQKILPKEYISSFTLGKEEFKESIKLCSSLSSTIKLTLEKNNALFESLDSEHSETAKTSVEIEKGLDIEKAFHLGVNAKFFLEALNALGTTQFVLRCNEPSSPFLIQESLDEKQSHLNAKISTLMMPITL
notes: DNA polymerase III beta subunit (β-clamp) of Helicobacter pylori 26695; domains I-III span Met1 to Leu374; Cloned between NcoI and XhoI of pET 28(b); the reverse primer has no stop codon, so a C-terminal vector His tag is likely (surmised); By the printed forward primer the ATG of the NcoI site is out of frame with the gene's own ATG; also called Hpβ-clamp; H. pylori β-clamp; source: E. coli …
In the case of B1, the “stoichiometry N” value [1] is reported as 2 and the Kd [2] is reported as 1250 nM.
